According to US20110300138A1 (published 2011):
Blank lines part the entries; values can stand above or below the binder they belong to.

Tests used:
[1] = molecular target: T1, human TSH receptor (full length), coated on ELISA plate wells (human, UniProt P16473 22-764); test: ELISA, inhibition of M22 Fab-peroxidase (competitor) binding to TSHR coated wells; 1 µg/mL in assay buffer; mean ± SD
T1 construct: TSHR coated ELISA plate wells of the TRAb ELISA; also called thyroid stimulating hormone receptor

[2] = molecular target: T1, human TSH receptor (full length), …; test: ELISA, inhibition of M22 Fab-peroxidase (competitor) binding to TSHR coated wells; 0.03 µg/mL in assay buffer; mean ± SD
[3] = molecular target: T1, human TSH receptor (full length), …; test: ELISA, inhibition of M22 Fab-peroxidase (competitor) binding to TSHR coated wells; 1 µg/mL in HBD serum; mean ± SD
[4] = molecular target: T1, human TSH receptor (full length), …; test: ELISA, inhibition of M22 Fab-peroxidase (competitor) binding to TSHR coated wells; 0.1 µg/mL in assay buffer; mean ± SD
[5] = molecular target: T1, human TSH receptor (full length), …; test: ELISA, inhibition of M22 Fab-peroxidase (competitor) binding to TSHR coated wells; 0.01 µg/mL in HBD serum; mean ± SD
[6] = molecular target: T1, human TSH receptor (full length), …; test: ELISA, inhibition of M22 Fab-peroxidase (competitor) binding to TSHR coated wells; 0.1 µg/mL in HBD serum; mean ± SD
[7] = molecular target: T1, human TSH receptor (full length), …; test: ELISA, inhibition of M22 Fab-peroxidase (competitor) binding to TSHR coated wells; 0.03 µg/mL in HBD serum; mean ± SD
[8] = molecular target: T1, human TSH receptor (full length), …; test: ELISA, inhibition of M22 Fab-peroxidase (competitor) binding to TSHR coated wells; 0.01 µg/mL in assay buffer; mean ± SD
[9] = molecular target: T2, TSHR260-alkaline phosphatase (TSHR260-AP) (human, UniProt P05187 23-511); test: TSHR260-AP bridge ELISA, full length TSHR on wells; 0.1 µg/mL, diluted in HBD
T2 construct: Fusion of human TSHR amino acids 22-260 (construct codes 1-260, 1-21 being the leader) with secreted alkaline phosphatase, expressed in insect cells; In the ELISA the antibody bridges full length detergent-solubilised TSHR coated on the wells and TSHR260-AP in the liquid phase
Protocol: (§1) An ELISA was established based on the ability of divalent TSHR antibodies to bind with one antigen binding site to TSHR coated onto an ELISA plate well and with the other antigen binding site to TSHR260-AP in a liquid phase i.e. forming a bridge. TSHR in the form of full length detergent-solubilised receptor expressed in CHO cells was coated onto ELISA plate wells via a C-terminal antibody as described previously (Bolton J et al 1999 supra). In the assay 75 μL of start buffer (as described for TRAb ELISA; Bolton J, et al 1999 supra) and 75 μL of test sample (patient sera or monoclonal antibodies) were added to the ELISA plate wells coated with the full length detergent solubilised TSHR and incubated for 2 hours at room temperature with shaking (500 rpm). Then the contents of the wells were removed, the wells washed 3 times with wash buffer (50 mmol/L NaCl, 20 mmol/L Tris pH 7.8, 1% Triton X-100) followed by addition of […] of TSHR260-AP (diluted in wash buffer containing 0.2 g/L MgCl₂-6H₂O and 2 g/L BSA). After incubation for 1 hour at room temperature with shaking (500 rpm) the wells were emptied, washed (3 times) and 100 μL of p-nitrophenyl phosphate (pNpp) substrate (Europa Bioproducts Ltd, Ely, Cambridge UK) added and the plate incubated in the dark for 45 minutes. Thereafter 100 μL of stop solution (1 mol/L NaOH) was added and the absorbance read at 405 nm in an ELISA plate reader. […] In some experiments solubilised preparations of recombinant TSHR containing mutation R255D expressed in CHO cells were used to coat the ELISA plate wells.
(§2) TSHR260-AP is a fusion protein consisting of a fragment of human TSHR (amino acids 22-260) e with alkaline phosphatase. […] Mean absorbance = mean of duplicate determinations.

[10] = molecular target: T2, TSHR260-alkaline phosphatase …; test: TSHR260-AP bridge ELISA, full length TSHR on wells; 0.1 µg/mL, diluted in assay buffer
Protocol: as §1, §2

[11] = molecular target: T2, TSHR260-alkaline phosphatase …; test: TSHR260-AP bridge ELISA, full length TSHR on wells; 250 µg/mL, diluted in HBD
Protocol: as §1, §2

[12] = molecular target: T2, TSHR260-alkaline phosphatase …; test: TSHR260-AP bridge ELISA, full length TSHR on wells; 250 µg/mL, diluted in assay buffer
Protocol: as §1, §2

[13] = molecular target: T2, TSHR260-alkaline phosphatase …; test: TSHR260-AP bridge ELISA, full length TSHR on wells; 0.005 µg/mL, diluted in assay buffer
Protocol: as §1, §2

[14] = molecular target: T2, TSHR260-alkaline phosphatase …; test: TSHR260-AP bridge ELISA, full length TSHR on wells; 10 µg/mL, diluted in assay buffer
Protocol: as §1, §2

[15] = molecular target: T2, TSHR260-alkaline phosphatase …; test: TSHR260-AP bridge ELISA, full length TSHR on wells; 10 µg/mL, diluted in HBD
Protocol: as §1, §2

[16] = molecular target: T2, TSHR260-alkaline phosphatase …; test: TSHR260-AP bridge ELISA, full length TSHR on wells; 0.005 µg/mL, diluted in HBD
Protocol: as §1, §2

B3: K1-70 Fab (Fab, V domains shown)
VH: EVQLVQSGAEVKKPGQSLKISCKASGYSLTDNWIGWVRQKPGKGLEWMGIIYPGDSDTRYSPSFQGQVTISADKSINTAYLQWSSLKASDTAIYYCVGLDWNYNPLRYWGPGTLVTVSS
VL: QSVLTQPPSVSAAPGQKVTISCSGSSSDIGSNYVSWYQQFPGTAPKLLIYDNNKRPSAIPDRFSGSKSGTSATLGITGLQTGDEADYYCGTWDSRLGIAVFGGGTQLTVLG
notes: residue limits as in claims 56 and 57
Mean absorbance at 405 nm [9]: -0.01 absorbance at 405 nm
Mean absorbance at 405 nm [10]: 0.007 absorbance at 405 nm
Mean absorbance at 405 nm [11]: 0.02 absorbance at 405 nm
Mean absorbance at 405 nm [12]: 0.056 absorbance at 405 nm
Mean absorbance at 405 nm [13]: -0.004 absorbance at 405 nm
Mean absorbance at 405 nm [14]: 0.033 absorbance at 405 nm
Mean absorbance at 405 nm [15]: 0.018 absorbance at 405 nm
Mean absorbance at 405 nm [16]: -0.01 absorbance at 405 nm

B5: K1-18 IgG (antibody, V domains shown)
VH: EVQLVQSGAEVKKPGESLKISCKGSGYSFTNYWIGWVRQMPGKGLEWMGIIYPYDSDTRYSPSFEGQVTISADKSIRTAYLHWSSLKASDTAMYYCVRPRDGSYPYDAFDIWGQGTMVTVSS
VL: EIVLTQSPGTLSLSPGERATLSCRASQSVSNNYLAWYQQKPGQAPRLLIYGASSRATGIPDRFSGSGSGTDFTLTISRLEPEDFAVYYCQHCGSSLRAFGQGTKVEIKR
notes: Human IgG1 with kappa light chains, purified from hetero-hybridoma culture supernatant; also called human monoclonal autoantibody to the TSHR with TSH agonist (stimulating) activity
Inhibition of binding (%) [1]: 96.3%
Inhibition of binding (%) [2]: 35.7%
Inhibition of binding (%) [3]: 94.6%
Inhibition of binding (%) [4]: 71.9%
Inhibition of binding (%) [5]: -4%
Inhibition of binding (%) [6]: 56.3%
Inhibition of binding (%) [7]: 13.6%
Inhibition of binding (%) [8]: 8.9%

B6: K1-18 Fab (Fab, V domains shown)
VH: B5 VH
VL: B5 VL
notes: residue limits as in claim 65
Mean absorbance at 405 nm [9]: -0.011 absorbance at 405 nm
Mean absorbance at 405 nm [10]: 0.002 absorbance at 405 nm
Mean absorbance at 405 nm [11]: -0.007 absorbance at 405 nm
Mean absorbance at 405 nm [12]: 0.049 absorbance at 405 nm
Mean absorbance at 405 nm [13]: -0.004 absorbance at 405 nm
Mean absorbance at 405 nm [14]: 0.008 absorbance at 405 nm
Mean absorbance at 405 nm [15]: -0.002 absorbance at 405 nm
Mean absorbance at 405 nm [16]: -0.011 absorbance at 405 nm

B7: K1-18 IgG (antibody, V domains shown)
VH: B5 VH
VL: B5 VL
notes: Human IgG1 kappa purified from hetero-hybridoma supernatant
Mean absorbance at 405 nm [9]: 0.292 absorbance at 405 nm
Mean absorbance at 405 nm [10]: 0.545 absorbance at 405 nm
Mean absorbance at 405 nm [11]: 0.722 absorbance at 405 nm
Mean absorbance at 405 nm [12]: 1.2 absorbance at 405 nm
Mean absorbance at 405 nm [13]: 0.136 absorbance at 405 nm
Mean absorbance at 405 nm [14]: 0.8 absorbance at 405 nm
Mean absorbance at 405 nm [15]: 0.66 absorbance at 405 nm
Mean absorbance at 405 nm [16]: 0.013 absorbance at 405 nm

The remaining lines, values ahead:

Inhibition of binding (%) [1]: 98.1%
Inhibition of binding (%) [2]: 71.8%
Inhibition of binding (%) [3]: 96.4%
Inhibition of binding (%) [4]: 93%
Inhibition of binding (%) [5]: 9.2%
Inhibition of binding (%) [6]: 69.7%
Inhibition of binding (%) [7]: 34.5%
Inhibition of binding (%) [8]: 28%
B1: K1-70 IgG (antibody, V domains shown)
VH: B3 VH
VL: B3 VL
notes: Human IgG1 with lambda light chains, purified from hetero-hybridoma culture supernatant

Mean absorbance at 405 nm [9]: 0.44 absorbance at 405 nm
Mean absorbance at 405 nm [10]: 0.713 absorbance at 405 nm
Mean absorbance at 405 nm [11]: 0.817 absorbance at 405 nm
Mean absorbance at 405 nm [12]: 1.13 absorbance at 405 nm
Mean absorbance at 405 nm [13]: 0.085 absorbance at 405 nm
Mean absorbance at 405 nm [14]: 0.885 absorbance at 405 nm
Mean absorbance at 405 nm [15]: 0.738 absorbance at 405 nm
Mean absorbance at 405 nm [16]: 0.045 absorbance at 405 nm
B2: K1-70 IgG (antibody, V domains shown)
VH: B3 VH
VL: B3 VL
notes: Human IgG1 lambda purified from hetero-hybridoma supernatant

Inhibition of binding (%) [1]: 97.2%
Inhibition of binding (%) [2]: 82%
Inhibition of binding (%) [3]: 96.1%
Inhibition of binding (%) [4]: 94.6%
Inhibition of binding (%) [5]: 27.9%
Inhibition of binding (%) [6]: 86%
Inhibition of binding (%) [7]: 58.8%
Inhibition of binding (%) [8]: 57.5%
B4: K1-70 Fab (Fab, V domains shown)
VH: B3 VH
VL: B3 VL
notes: also called Fab of K1-70
